Molecular target: V. parahaemolyticus YeaZ, fragment 1-213 as in the crystals (Vibrio parahaemolyticus)
Assay: crystal structure; X-ray, 3.1 Å; asymmetric unit with four subunits (two dimers related by a non-crystallographic two-fold axis); crystals of fragment 1-213; no nucleotide

Substance: V. parahaemolyticus YeaZ, fragment 1-213 as in the crystals (domain or fragment)
- stoichiometry N: 2

From PMC3157347
